Experimental data published in PMC4658161, “Mutually Exclusive Roles of SHARPIN in Integrin Inactivation and NF-κB Signaling” (PLoS ONE, 2015).

B1: GST-SHARPIN^WT [not stated] / recombinant RNF31 [not stated] (parent complex)
chain 1: MAPPAGGAAAAASDLGSAAVLLAVHAAVRPLGAGPDAEAQLRRLQLSADPERPGRFRLELLGAGPGAVNLEWPLESVSYTIRGPTQHELQPPPGGPGTLSLHFLNPQEAQRWAVLVRGATVEGQNGSKSNSPPALGPEACPVSLPSPPEASTLKGPPPEADLPRSPGNLTEREELAGSLARAIAGGDEKGAAQVAAVLAQHRVALSVQLQEACFPPGPIRLQVTLEDAASAASAASSAHVALQVHPHCTVAALQEQVFSELGFPPAVQRWVIGRCLCVPERSLASYGVRQDGDPAFLYLLSAPREAPATGPSPQHPQKMDGELGRLFPPSLGLPPGPQPAASSLPSPLQPSWSCPSCTFINAPDRPGCEMCSTQRPCTWDPLAAAST
chain 2: MPGEEEERAFLVAREELASALRRDSGQAFSLEQLRPLLASSLPLAARYLQLDAARLVRCNAHGEPRNYLNTLSTALNILEKYGRNLLSPQRPRYWRGVKFNNPVFRSTVDAVQGGRDVLRLYGYTEEQPDGLSFPEGQEEPDEHQVATVTLEVLLLRTELSLLLQNTHPRQQALEQLLEDKVEDDMLQLSEFDPLLREIAPGPLTTPSVPGSTPGPCFLCGSAPGTLHCPSCKQALCPACDHLFHGHPSRAHHLRQTLPGVLQGTHLSPSLPASAQPRPQSTSLLALGDSSLSSPNPASAHLPWHCAACAMLNEPWAVLCVACDRPRGCKGLGLGTEGPQGTGGLEPDLARGRWACQSCTFENEAAAVLCSICERPRLAQPPSLVVDSRDAGICLQPLQQGDALLASAQSQVWYCIHCTFCNSSPGWVCVMCNRTSSPIPAQHAPRPYASSLEKGPPKPGPPRRLSAPLPSSCGDPEKQRQDKMREEGLQLVSMIREGEAAGACPEEIFSALQYSGTEVPLQWLRSELPYVLEMVAELAGQQDPGLGAFSCQEARRAWLDRHGNLDEAVEECVRTRRRKVQELQSLGFGPEEGSLQALFQHGGDVSRALTELQRQRLEPFRQRLWDSGPEPTPSWDGPDKQSLVRRLLAVYALPSWGRAELALSLLQETPRNYELGDVVEAVRHSQDRAFLRRLLAQECAVCGWALPHNRMQALTSCECTICPDCFRQHFTIALKEKHITDMVCPACGRPDLTDDTQLLSYFSTLDIQLRESLEPDAYALFHKKLTEGVLMRDPKFLWCAQCSFGFIYEREQLEATCPQCHQTFCVRCKRQWEEQHRGRSCEDFQNWKRMNDPEYQAQGLAMYLQENGIDCPKCKFSYALARGGCMHFHCTQCRHQFCSGCYNAFYAKNKCPEPNCRVKKSLHGHHPRDCLFYLRDWTALRLQKLLQDNNVMFNTEPPAGARAVPGGGCRVIEQKEVPNGLRDEACGKETPAGYAGLCQAHYKEYLVSLINAHSLDPATLYEVEELETATERYLHVRPQPLAGEDPPAYQARLLQKLTEEVPLGQSIPRRRK

Variants of: B1
Assay: ELISA-based binding assay; n = 3; parent: 1; read off a plot

Variant | response [Abs 450nm]
chain 1 L261A, chain 1 F263A | ~0.7
chain 1 I272A | ~0.45
chain 1 L276A | ~0.49
chain 1 V267A | ~0.69
